# Test results as given in patent US8507446B2, “Use of PEDF-derived polypeptides for treating liver cirrhosis” (MacKay Memorial Hospital, priority 2011, dated 2013).
# Tests used:
# HSC-T6 cells = test: PPARγ induction and PPARγ siRNA reversal in HSC-T6 cells; format: cell-based, rat; settings: 48 hours; RT-PCR and immunoblot
# Description: HSC-T6 cells, a rat immortalized HSC, retained all features of activated HSCs and was kindly provided by Dr. Friedman S L (Kim et al., J Biol Chem 1998 273:33750-33758). HSC-T6 cells were grown in Waymouth medium supplemented with 10% FBS at 37° C. in a humidified atmosphere of 5% CO2.
# The total RNA was extracted from cells using the TRIzol (Invitrogen, Carlsbad, Calif.). […] The intensities of the PCR products were quantified using a FUJI LAS-3000 densitometer and Multi Gauge Ver. […]
# Cells were scraped into lysis buffer (150 μL/35-mm well) containing 20 mM HEPES (pH 7.4), 1% SDS, 150 mM NaCl, 1 mM EGTA, 5 mM β-glycerophosphate, 10 mM sodium pyrophosphate, 10 mM sodium fluoride, […] sodium orthovanadate, 10 μg/mL leupeptin, and 10 μg/mL aprotinin. […] Proteins of interest were detected using the appropriate IgG-HRP secondary antibody and ECL reagent. X-ray films were scanned on a Model GS-700 Imaging Densitometer (Bio-Rad Laboratories, Hercules, Calif.) and analyzed using Labworks 4.0 software. For quantification, blots from at least three independent experiments were used. […]
# [1] = system: liver-derived progenitor cells (LDPCs); test: Self-renewal of LDPCs over two passages and differentiation into hepatocytes; format: cell-based, rat
# Description: Liver cells from Sprague Dawley rats were harvested by 2-step in situ collagenase perfusion technique. The cells were then washed in phosphate buffered saline and centrifuged (50 g for 5 minutes) twice at room temperature. The cells were not further subjected to any fractionation as previously described (Sahin M B et al., Liver Transpl. 2008 14(3):333-45). Freshly isolated rat liver cells were cultured in a medium consisting of 75% Dulbecco's modified Eagle's medium (DMEM) and 25% MCDB 201 (Sigma-Aldrich) supplemented with 10% fetal bovine serum, 1 mg/mL of bovine serum albumin (BSA; Sigma), 100 μM of β-mercaptoethanol (Gibco, Carlsbad, Calif.), 25 mM of 4-2-hydroxyethyl-1-piperazineethanesulfonic acid (HEPES), 5 mM of Nicotinamide (Sigma-Aldrich), 1% SITE liquid medium (Sigma-Aldrich), and penicillin (100 μg/ml)/streptomycin (100 μg/ml; Invitrogen, Carlsbad, Calif.) on Type I collagen (Sigma, St. Louis, Mo.) coated tissue culture plates or dishes at a density of 1×10^4 cells/cm^2 at 37° C. in 5% CO2.
# Deparaffinized liver tissue sections or 4% paraformaldehyde fixed HSCs were blocked with 10% goat serum and 5% BSA for 1 h. Dual staining was done using primary antibodies against human PEDF (se-59641; Santa Cruz Biotechnology, CA, USA) or α-SMA (ab5694 or ab7817; Abcam), PPARγ (sc-7273; Santa Cruz Biotechnology), albumin (sc-46295; Santa Cruz Biotechnology) or cytokeratin (CK) 18 (GTX112978; GeneTex, Inc.) at 37° C. for 2 h, followed by incubation with the appropriate rhodamine- or FITC-conjugated donkey IgG for 1 hr at room temperature. Nuclei were located by counterstaining with Hoechst 33258 for 7 min. Images were captured using a Zeiss epifluorescence microscope with a CCD camera.
# Cells were scraped into lysis buffer (150 μL/35-mm well) containing 20 mM HEPES (pH 7.4), 1% SDS, 150 mM NaCl, 1 mM EGTA, 5 mM β-glycerophosphate, 10 mM sodium pyrophosphate, 10 mM sodium fluoride, […] sodium orthovanadate, 10 μg/mL leupeptin, and 10 μg/mL aprotinin. The lysate was incubated on ice for 15 min. Total cell lysate was also separated into cytoplasmic and nuclear fractions using the NE-PER nuclear and cytoplasmic extraction kit (Pierce, Rockford, Ill.) according to the manufacturer's instructions. Each cellular fraction was then resolved by SDS-PAGE and then electrotransferred to polyvinylidene difluoride membranes (Millipore, Bedford, Mass.) and processed for immunoblot analysis. Antibodies used in the immunoblot study included human PEDF (sc-59641; Santa Cruz Biotechnology), mouse PEDF (sc-74253; Santa Cruz Biotechnology), type I collagen 1A1 (sc-25974; Santa Cruz Biotechnology), α-SMA (ab5694 or ab7817; Abcam), PPARγ••(sc-7273; Santa Cruz Biotechnology), MCP-1 (ab7202; Abcam Ltd), α-actin (Sigma), epithelial cell adhesion molecule (EpCAM; sc-66020; Santa Cruz Biotechnology), hepatocytes nuclear factor and (HVF)3-β (sc-6554; Santa Cruz Biotechnology). Proteins of interest were detected using the appropriate IgG-HRP secondary antibody and ECL reagent. X-ray films were scanned on a Model GS-700 Imaging Densitometer (Bio-Rad Laboratories, Hercules, Calif.) and analyzed using Labworks 4.0 software. For quantification, blots from at least three independent experiments were used.
# It has been reported that LDPCs may not be expanded in conventional basal medium, unless growth factor(s) were added therein (Sahin et al., Liver Transpl. 2008 14(3):333-45). To test the self-renewal property of PEDF derived peptides on LDPCs, liver cells were isolated and grown in separate medium including 4.5 nM (200 ng/ml) PEDF, 50 nM 34-mer or 50 nM 44-mer for two passages, which took a period of 35 days. The newly produced LDPCs in the cultured cells were confirmed by the detection of autofluorescence emitted therefrom; as well as two LDPC markers, which are epithelial cell adhesion molecule (EpCAM) and hepatocytes nuclear factor 3•••(HNF3)-β, by immunoblot analysis. […]
molecule,measurement,setting,value
"pigment-epithelium-derived factor (protein, UniProt P36955 20-418, looked up, pigment-epithelium-derived factor protein, used at 4.5 nM (200 ng/ml)) Pigment epithelium-derived …: QNPASPPEEGSPDPDSTGALVEEEDPFFKVPVNKLAAAVSNFGYDLYRVRSSTSPTTNVLLSPLSVATALSALSLGAEQRTESIIHRALYYDLISSPDIHGTYKELLDTVTAPQKNLKSASRIVFEKKLRIKSSFVAPLEKSYGTRPRVLTGNPRLDLQEINNWVQAQMKGKLARSTKEIPDEISILLLGVAHFKGQWVTKFDSRKTSLEDFYLDEERTVRVPMMSDPKAVLRYGLDSDLSCKIAQLPLTGSMSIIFFLPLKVTQNLTLIEESLTSEFIHDIDRELKTVQAVLTVPKLKLSYEGEVTKSLQEMKLQSLFDSPDFSKITGKPIKLTQVEHRAGFEWNEDGAGTTPSPGLQPAHLTFPLDYHLNQPFIFVLRDTDTGALLFIGKILDPRGP",mRNA and protein expression of PPARγ,HSC-T6 cells,induced
same,autofluorescence (LDPC marker),"[1]; 4.5 nM PEDF, 50 nM 34-mer or 50 nM 44-mer, two passages, 35 days",emitted autofluorescence
same,ability of expanded LDPCs to differentiate into hepatocytes (albumin and CK-18 staining),[1]; immunofluorescence,retain the ability of differentiating into hepatocyte
same,self-renewal by expression of LDPC markers EpCAM and HNF3-β (immunoblot),"[1]; two passages, 35 days",exhibits self-renewal property
